According to the supplement of paper PMC10065799, “High-throughput profiling of sequence recognition by tyrosine kinases and SH2 domains using bacterial peptide display” (eLife, 2023):

Columns and labels:
Jak2 = Jak2 (UniProt O60674); assay: phosphorylation enrichment, bacterial display (enrichment ratio); higher = better substrate or ligand; peptides without Tyr show the background
EPHB1 = EPHB1 (UniProt P54762); assay: as above
AncSZ = assay: as above
MERTK = MERTK (UniProt Q12866); assay: as above
MERTK, sequence (Q12866 whole entry, looked up): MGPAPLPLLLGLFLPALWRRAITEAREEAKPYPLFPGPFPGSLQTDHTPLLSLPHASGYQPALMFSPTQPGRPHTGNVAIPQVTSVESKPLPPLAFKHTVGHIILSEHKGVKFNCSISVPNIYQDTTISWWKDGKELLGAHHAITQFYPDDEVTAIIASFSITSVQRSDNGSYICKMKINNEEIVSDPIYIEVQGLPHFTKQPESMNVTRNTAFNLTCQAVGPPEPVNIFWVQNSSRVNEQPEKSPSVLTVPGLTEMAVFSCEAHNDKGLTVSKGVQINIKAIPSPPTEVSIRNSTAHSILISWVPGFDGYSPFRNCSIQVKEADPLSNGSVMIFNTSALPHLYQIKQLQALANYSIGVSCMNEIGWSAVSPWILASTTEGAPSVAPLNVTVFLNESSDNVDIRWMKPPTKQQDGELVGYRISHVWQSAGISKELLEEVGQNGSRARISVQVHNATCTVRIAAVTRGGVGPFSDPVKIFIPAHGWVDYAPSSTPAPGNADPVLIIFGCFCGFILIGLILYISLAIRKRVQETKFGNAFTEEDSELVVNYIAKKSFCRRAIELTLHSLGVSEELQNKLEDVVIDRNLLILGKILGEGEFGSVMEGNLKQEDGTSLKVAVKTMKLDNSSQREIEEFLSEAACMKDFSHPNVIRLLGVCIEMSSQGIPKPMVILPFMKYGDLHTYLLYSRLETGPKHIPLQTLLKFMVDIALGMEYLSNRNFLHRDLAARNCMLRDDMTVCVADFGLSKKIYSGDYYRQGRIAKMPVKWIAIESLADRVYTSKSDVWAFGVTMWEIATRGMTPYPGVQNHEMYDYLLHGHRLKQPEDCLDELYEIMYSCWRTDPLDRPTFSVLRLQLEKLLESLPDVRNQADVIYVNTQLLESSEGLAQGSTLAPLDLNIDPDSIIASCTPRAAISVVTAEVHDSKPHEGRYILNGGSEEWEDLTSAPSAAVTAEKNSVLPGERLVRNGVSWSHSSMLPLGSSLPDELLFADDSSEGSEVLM

EPHB2 = EPHB2 (UniProt P29323); assay: as above
Fer (mouse) = assay: as above
Hck = Hck (UniProt P08631); assay: as above
Hck, sequence (P08631 whole entry, looked up): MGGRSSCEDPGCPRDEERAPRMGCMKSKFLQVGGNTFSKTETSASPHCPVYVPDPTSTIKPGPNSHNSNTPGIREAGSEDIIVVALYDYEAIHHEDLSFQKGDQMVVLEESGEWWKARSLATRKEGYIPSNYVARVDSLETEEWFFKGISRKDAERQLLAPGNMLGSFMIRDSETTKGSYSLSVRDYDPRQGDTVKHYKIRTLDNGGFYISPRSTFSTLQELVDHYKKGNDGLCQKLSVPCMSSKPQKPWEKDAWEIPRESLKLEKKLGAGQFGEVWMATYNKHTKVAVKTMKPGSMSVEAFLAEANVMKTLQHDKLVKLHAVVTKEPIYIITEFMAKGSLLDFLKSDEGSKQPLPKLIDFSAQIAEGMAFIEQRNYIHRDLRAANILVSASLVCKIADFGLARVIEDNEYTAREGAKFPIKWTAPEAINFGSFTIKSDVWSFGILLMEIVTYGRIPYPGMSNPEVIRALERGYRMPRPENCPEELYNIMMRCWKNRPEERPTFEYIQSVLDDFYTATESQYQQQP

c-Abl (mouse) = assay: as above
Fes = Fes (UniProt P07332); assay: as above
Fes, sequence (P07332 whole entry, looked up): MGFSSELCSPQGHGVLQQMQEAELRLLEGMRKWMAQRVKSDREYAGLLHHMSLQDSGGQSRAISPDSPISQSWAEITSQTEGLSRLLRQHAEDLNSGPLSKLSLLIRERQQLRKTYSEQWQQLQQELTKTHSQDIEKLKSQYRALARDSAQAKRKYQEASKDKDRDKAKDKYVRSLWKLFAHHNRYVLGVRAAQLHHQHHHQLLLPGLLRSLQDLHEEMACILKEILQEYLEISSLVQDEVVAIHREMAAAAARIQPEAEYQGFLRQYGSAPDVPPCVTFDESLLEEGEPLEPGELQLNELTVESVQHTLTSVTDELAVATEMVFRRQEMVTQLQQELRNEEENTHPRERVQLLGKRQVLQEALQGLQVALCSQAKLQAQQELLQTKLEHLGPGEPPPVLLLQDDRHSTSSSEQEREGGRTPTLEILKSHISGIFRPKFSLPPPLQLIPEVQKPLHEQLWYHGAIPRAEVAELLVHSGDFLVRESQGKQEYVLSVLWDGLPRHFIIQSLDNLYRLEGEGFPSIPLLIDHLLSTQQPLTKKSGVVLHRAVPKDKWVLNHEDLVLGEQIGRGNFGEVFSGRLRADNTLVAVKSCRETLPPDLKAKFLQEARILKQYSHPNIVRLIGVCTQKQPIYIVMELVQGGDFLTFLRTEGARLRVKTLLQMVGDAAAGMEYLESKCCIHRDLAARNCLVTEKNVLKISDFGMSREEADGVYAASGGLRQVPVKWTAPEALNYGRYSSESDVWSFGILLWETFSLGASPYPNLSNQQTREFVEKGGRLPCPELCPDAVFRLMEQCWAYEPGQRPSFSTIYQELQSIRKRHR

FGFR3 = FGFR3 (UniProt P22607); assay: as above
c-Src = assay: as above
Fyn = Fyn (UniProt P06241); assay: as above
Fyn, sequence (P06241 whole entry, looked up): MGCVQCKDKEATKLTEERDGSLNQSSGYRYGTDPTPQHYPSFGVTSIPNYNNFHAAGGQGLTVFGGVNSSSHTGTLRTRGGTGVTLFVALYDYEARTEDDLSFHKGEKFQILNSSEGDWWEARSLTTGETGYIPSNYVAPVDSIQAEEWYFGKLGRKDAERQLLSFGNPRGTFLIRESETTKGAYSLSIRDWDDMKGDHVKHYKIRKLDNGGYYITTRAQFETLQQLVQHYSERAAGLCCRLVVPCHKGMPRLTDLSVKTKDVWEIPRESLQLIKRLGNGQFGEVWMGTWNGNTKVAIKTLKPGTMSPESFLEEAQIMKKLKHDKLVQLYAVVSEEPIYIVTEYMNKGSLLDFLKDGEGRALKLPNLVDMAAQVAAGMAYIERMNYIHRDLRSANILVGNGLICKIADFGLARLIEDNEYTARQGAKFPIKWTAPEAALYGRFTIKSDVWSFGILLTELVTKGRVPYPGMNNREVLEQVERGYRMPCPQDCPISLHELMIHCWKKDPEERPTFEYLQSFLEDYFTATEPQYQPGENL

FGFR1 = FGFR1 (UniProt P11362); assay: as above
c-Src SH2 = assay: SH2 binding enrichment of the phosphorylated peptide, bacterial display (enrichment ratio); higher = better substrate or ligand; peptides without Tyr show the background
Grb2 SH2 = Grb2 SH2 (UniProt P62993); assay: as above
SHP2-C SH2 = assay: as above
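Wherever SH2 binding enrichment of the phosphorylated peptide, bacterial display is given: peptide library displayed on the E. coli surface as eCPX fusions, selected cells deep-sequenced, score is each peptide's frequency after selection divided by its frequency in the input.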
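Wherever phosphorylation enrichment, bacterial display is given: 11-residue human phosphosite peptides and single-mutation variants displayed on the E. coli surface, counted by deep sequencing, each peptide's frequency after selection divided by its frequency in the unselected input library; frequency after pTyr selection over input frequency; kinase dosed for 20-30% of maximal phosphorylation in three min.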

EPHB1, sequence (P54762 whole entry, looked up): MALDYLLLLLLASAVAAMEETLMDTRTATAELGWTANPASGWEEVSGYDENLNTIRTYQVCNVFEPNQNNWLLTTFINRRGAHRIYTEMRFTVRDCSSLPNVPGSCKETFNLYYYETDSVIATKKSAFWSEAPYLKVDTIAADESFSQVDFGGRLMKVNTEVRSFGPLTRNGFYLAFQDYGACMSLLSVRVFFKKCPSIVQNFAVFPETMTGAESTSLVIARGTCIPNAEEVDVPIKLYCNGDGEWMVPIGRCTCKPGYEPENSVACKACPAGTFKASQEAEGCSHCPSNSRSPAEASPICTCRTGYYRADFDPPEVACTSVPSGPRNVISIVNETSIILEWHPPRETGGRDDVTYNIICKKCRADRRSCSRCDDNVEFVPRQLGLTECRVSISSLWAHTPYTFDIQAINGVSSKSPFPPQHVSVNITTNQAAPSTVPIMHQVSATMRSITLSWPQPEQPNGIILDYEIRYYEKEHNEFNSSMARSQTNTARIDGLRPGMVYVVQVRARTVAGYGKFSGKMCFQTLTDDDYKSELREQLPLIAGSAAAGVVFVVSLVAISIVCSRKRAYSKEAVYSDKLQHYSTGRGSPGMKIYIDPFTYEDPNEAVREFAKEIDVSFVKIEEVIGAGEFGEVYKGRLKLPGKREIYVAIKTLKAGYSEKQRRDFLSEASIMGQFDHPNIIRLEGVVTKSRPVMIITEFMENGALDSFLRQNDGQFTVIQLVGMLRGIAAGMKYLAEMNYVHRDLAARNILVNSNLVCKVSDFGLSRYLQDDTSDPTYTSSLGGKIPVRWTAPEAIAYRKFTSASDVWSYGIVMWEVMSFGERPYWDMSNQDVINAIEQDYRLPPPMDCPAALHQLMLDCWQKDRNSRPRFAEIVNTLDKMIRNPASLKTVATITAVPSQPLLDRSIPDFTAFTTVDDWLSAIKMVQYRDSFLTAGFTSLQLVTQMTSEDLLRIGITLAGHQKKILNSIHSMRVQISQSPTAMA
Jak2, sequence (O60674 whole entry, looked up): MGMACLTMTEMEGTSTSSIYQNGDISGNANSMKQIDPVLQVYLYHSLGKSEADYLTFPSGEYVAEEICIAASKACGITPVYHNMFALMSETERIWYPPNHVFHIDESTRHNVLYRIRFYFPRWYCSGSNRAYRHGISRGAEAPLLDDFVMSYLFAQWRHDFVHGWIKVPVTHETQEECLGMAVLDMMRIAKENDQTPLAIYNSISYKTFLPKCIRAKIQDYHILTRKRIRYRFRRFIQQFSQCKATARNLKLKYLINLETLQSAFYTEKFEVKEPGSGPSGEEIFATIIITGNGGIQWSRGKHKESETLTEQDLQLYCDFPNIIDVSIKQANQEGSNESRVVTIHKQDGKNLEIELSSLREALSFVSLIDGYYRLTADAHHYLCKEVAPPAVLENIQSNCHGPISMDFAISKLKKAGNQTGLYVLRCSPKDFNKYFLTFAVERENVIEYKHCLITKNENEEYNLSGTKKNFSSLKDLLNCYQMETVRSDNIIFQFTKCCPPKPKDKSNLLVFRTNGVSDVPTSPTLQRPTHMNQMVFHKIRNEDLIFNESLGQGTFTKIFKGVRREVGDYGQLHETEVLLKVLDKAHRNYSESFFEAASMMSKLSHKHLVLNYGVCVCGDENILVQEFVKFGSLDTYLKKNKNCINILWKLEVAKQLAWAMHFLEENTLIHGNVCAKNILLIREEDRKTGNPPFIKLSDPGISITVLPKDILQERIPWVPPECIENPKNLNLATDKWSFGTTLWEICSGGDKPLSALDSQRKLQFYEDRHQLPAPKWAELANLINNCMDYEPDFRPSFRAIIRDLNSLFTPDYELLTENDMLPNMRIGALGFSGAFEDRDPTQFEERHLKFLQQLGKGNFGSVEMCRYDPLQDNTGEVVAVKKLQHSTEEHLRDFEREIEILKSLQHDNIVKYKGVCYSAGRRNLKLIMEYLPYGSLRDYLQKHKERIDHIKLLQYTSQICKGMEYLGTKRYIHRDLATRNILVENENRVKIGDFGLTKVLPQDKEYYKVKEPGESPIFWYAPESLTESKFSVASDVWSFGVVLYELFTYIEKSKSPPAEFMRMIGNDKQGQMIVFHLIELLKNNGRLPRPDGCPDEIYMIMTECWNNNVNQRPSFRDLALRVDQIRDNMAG

SH2 binding enrichment (c-Src SH2)	SH2 binding enrichment (Grb2 SH2)	SH2 binding enrichment (SHP2-C SH2)	Sequence	phosphorylation enrichment (Jak2)	phosphorylation enrichment (EPHB1)	phosphorylation enrichment (AncSZ)	phosphorylation enrichment (MERTK)	phosphorylation enrichment (EPHB2)	phosphorylation enrichment (Fer (mouse))	phosphorylation enrichment (Hck)	phosphorylation enrichment (c-Abl (mouse))	phosphorylation enrichment (Fes)	phosphorylation enrichment (FGFR3)	phosphorylation enrichment (c-Src)	phosphorylation enrichment (Fyn)	phosphorylation enrichment (FGFR1)
1.59	0.813	1.15	VDSNPYSHLMA [UBA5_Y53_R55H]	0.577	0.48	0.669	0.518	0.481	1.25	0.891	0.504	0.631	0.489	0.862	0.639	0.418
1.38	1.77	2.13	RHFTGYRIELQ [INSR_Y818]	0.989	0.472	1.01	0.546	0.56	0.544	0.401	0.805	1.37	0.661	0.525	0.604	0.531
0.45	0.888	0.616	EVESPYEVRDF [GIGYF2_Y1168_H1171R_YF]	1.63	1.01	1.57	0.809	0.951	9.13	2.04	1.09	1.71	0.942	6.73	7.49	0.655
0.659	1.21	0.857	IMITDYLPLFR [INSR_Y87_L89P]	2.85	0.641	1.09	0.427	0.651	0.376	0.755	0.732	0.985	0.729	0.577	0.473	0.737
1.1	1.46	1.18	CKLCQYFLDHL [ATRX_Y1849_Y1847C_YF]	1.16	0.571	1.28	0.49	0.612	0.442	0.456	0.89	1.18	0.661	0.766	0.449	0.689
0.52	0.879	0.832	IKELTYQTEED [MYH7_Y1852]	1.1	0.591	1.27	0.441	0.612	0.635	0.604	0.753	1.33	0.773	0.467	0.579	0.54
0.611	0.711	1.16	SPPEVYAIMRG [NTRK1_Y757_C752S]	0.718	1.12	0.99	1.82	0.641	0.525	2.91	0.609	0.808	0.524	2.64	1.63	0.506
36.9	1.2	2.08	WDSSGYWTPEE [PAPPA2_Y908_C903W]	1.28	0.521	1.41	0.502	0.533	0.569	0.449	0.672	1.08	0.87	0.453	0.53	0.855
0.751	2.82	0.95	EFQLPYFNMVP [BMPR1A_Y457_YF]	7.21	0.389	1.01	0.584	0.46	0.348	0.596	0.618	1.01	3.58	2.12	0.547	5
0.929	0.893	3.97	ILTYKYLQIPM [KIT_Y547_K550I]	0.817	0.7	1.11	0.406	0.631	0.389	0.483	0.706	0.997	0.807	0.396	0.422	0.785
0.417	0.679	0.581	WNDPDYMDSRR [GAA_Y407_L405P]	0.779	0.989	1.46	0.351	0.687	0.432	0.472	0.614	1	0.727	0.453	0.493	0.553
0.468	0.939	0.439	RAFRHYLLKQK [SCN2A_Y1919_R1918H_YF]	0.912	0.793	1.16	0.97	1.67	1.49	1.28	1.48	1.59	1.68	0.907	1.16	0.955
0.624	1.03	0.539	FSDQVYRQHRK [TH_Y230_R233H]	0.529	0.335	0.555	0.357	0.452	0.355	0.447	0.819	0.644	0.441	0.452	0.378	0.388
0.479	0.822	0.598	ESPGLYGFLNV [BCR_Y910]	0.922	0.586	1.09	1.05	0.574	1.23	2.24	0.717	1.1	0.646	1.23	1.48	0.527
0.482	0.888	0.567	EEGRVYVFHLS [ITGAE_Y549_R552H_YF]	0.958	0.672	1.18	0.48	0.573	0.648	0.46	0.825	1.25	0.756	0.522	0.512	0.557
0.395	0.762	0.527	ESVNTYLQTSP [NAT1_Y208_M205V]	0.799	0.538	0.874	0.588	0.838	0.49	0.556	0.655	0.887	0.577	0.589	0.441	0.386
